From publication PMC9331606 (2022)

B1: Halo-tagged human cytomegalovirus immediate early 1 protein (hIE1) [human cytomegalovirus (HCMV)] / NanoLuciferase-tagged human promyelocytic leukemia protein (hPML) [human] (parent complex)
chain 1: MESSAKRKMDPDNPDEGPSSKVPRPETPVTKATTFLQTMLRKEVNSQLSLGDPLFPELAEESLKTFEQVTEDCNENPEKDVLAELVKQIKVRVDMVRHRIKEHMLKKYTQTEEKFTGAFNMMGGCLQNALDILDKVHEPFEEMKCIGLTMQSMYENYIVPEDKREMWMACIKELHDVSKGAANKLGGALQAKARAKKDELRRKMMYMCYRNIEFFTKNSAFPKTTNGCSQAMAALQNLPQCSPDEIMAYAQKIFKILDEERDKVLTHIDHIFMDILTTCVETMCNEYKVTSDACMMTMYGGISLLSEFCRVLCCYVLEETSVMLAKRPLITKPEVISVMKRRIEEICMKVFAQYILGADPLRVCSPSVDDLRAIAEESDEEEAIVAYTLATAGVSSSDSLVSPPESPVPATIPLSSVIVAENSDQEESEQSDEEEEEGAQEEREDTVSVKSEPVSEIEEVAPEEEEDGAEEPTASGGKSTHPMVTRSKADQ
chain 2: MEPAPARSPRPQQDPARPQEPTMPPPETPSEGRQPSPSPSPTERAPASEEEFQFLRCQQCQAEAKCPKLLPCLHTLCSGCLEASGMQCPICQAPWPLGADTPALDNVFFESLQRRLSVYRQIVDAQAVCTRCKESADFWCFECEQLLCAKCFEAHQWFLKHEARPLAELRNQSVREFLDGTRKTNNIFCSNPNHRTPTLTSIYCRGCSKPLCCSCALLDSSHSELKCDISAEIQQRQEELDAMTQALQEQDSAFGAVHAQMHAAVGQLGRARAETEELIRERVRQVVAHVRAQERELLEAVDARYQRDYEEMASRLGRLDAVLQRIRTGSALVQRMKCYASDQEVLDMHGFLRQALCRLRQEEPQSLQAAVRTDGFDEFKVRLQDLSSCITQGKDAAVSKKASPEAASTPRDPIDVDLPEEAERVKAQVQALGLAEAQPMAVVQSVPGAHPVPVYAFSIKGPSYGEDVSNTTTAQKRKCSQTQCPRKVIKMESEEGKEARLARSSPEQPRPSTSKAVSPPHLDGPPSPRSPVIGSEVFLPNSNHVASGAGEAEERVVVISSSEDSDAENSSSRELDDSSSESSDLQLEGPSTLRVLDENLADPQAEDRPLVFFDLKIDNETQKISQLAAVNRESKFRVVIQPEAFFSIYSKAVSLEVGLQHFLSFLSSMRRPILACYKLWGPGLPNFFRALEDINRLWEFQEAISGFLAALPLIRERVPGASSFKLKNLAQTYLARNMSERSAMAAVLAMRDLCRLLEVSPGPQLAQHVYPFSSLQCFASLQPLVQAAVLPRAEARLLALHNVSFMELLSAHRRDRQGGLKKYSRYLSLQTTTLPPAQPAFNLQALGTYFEGLLEGPALARAEGVSTPLAGRGLAERASQQS

Variants of: B1
Assay: NanoBRET; HEK293T cells transfected 24 h; 4 h incubation with Halo ligand; detection time 5 s at 618 nm and 448 nm; parent: 23; read off a plot

Row | Variant | response
1 | chain 1 L174P | ~1.2 mBU
